# B1: SLC35F2 (Homo sapiens) (protein)
# chain: MEADSPAGPGAPEPLAEGAAAEFSSLLRRIKGKLFTWNILKTIALGQMLSLCICGTAITSQYLAERYKVNTPMLQSFINYCLLFLIYTVMLAFRSGSDNLLVILKRKWWKYILLGLADVEANYVIVRAYQYTTLTSVQLLDCFGIPVLMALSWFILHARYRVIHFIAVAVCLLGVGTMVGADILAGREDNSGSDVLIGDILVLLGASLYAISNVCEEYIVKKLSRQEFLGMVGLFGTIISGIQLLIVEYKDIASIHWDWKIALLFVAFALCMFCLYSFMPLVIKVTSATSVNLGILTADLYSLFVGLFLFGYKFSGLYILSFTVIMVGFILYCSTPTRTAEPAESSVPPVTSIGIDNLGLKLEENLQETHSAVL
# B2: SLC35F3 (Homo sapiens) (protein)
# chain: MKKHSARVAPLSACNSPVLTLTKVEGEERPRDSPGPAEAQAPAGVEAGGRASRRCWTCSRAQLKKIFWGVAVVLCVCSSWAGSTQLAKLTFRKFDAPFTLTWFATNWNFLFFPLYYVGHVCKSTEKQSVKQRYRECCRFFGDNGLTLKVFFTKAAPFGVLWTLTNYLYLHAIKKINTTDVSVLFCCNKAFVFLLSWIVLRDRFMGVRIVAAILAIAGIVMMTYADGFHSHSVIGIALVVASASMSALYKVLFKLLLGSAKFGEAALFLSILGVFNILFITCIPIILYFTKVEYWSSFDDIPWGNLCGFSVLLLTFNIVLNFGIAVTYPTLMSLGIVLSIPVNAVIDHYTSQIVFNGVRVIAIIIIGLGFLLLLLPEEWDVWLIKLLTRLKVRKKEEPAEGAADLSSGPQSKNRRARPSFAR
# B3: SLC35F4 (Homo sapiens) (protein)
# chain: MDELLLDLFHKLTSGRQLAAGNGLCGISHKEQEVWKPGHNILVKMRKEDKSLVWLIHSTLARYTQVTNFLGTSRSSVTRCKPGANCPSSHSGISRQLSPLSVTEDSSAPILELQNQGSSGVCGHRVERQNRSADDGTQTHSENSSQENRIKARCLSCTSMVLKGIWGLLIILSVSSSWVGTTQIVKITYKNFYCPFFMTWFSTNWNIMFFPVYYSGHLATAQEKQSPMKKFRECSRIFGEDGLTLKLFLKRTAPFSILWTLTNYLYLLALKKLTATDVSALFCCNKAFVFLLSWIVLKDRFMGVRIVAAIMAITGIVMMAYADNFHADSIIGVAFAVGSASTSALYKVLFKMFLGSANFGEAAHFVSTLGFFNLIFISFTPVILYFTKVEHWSSFAALPWGCLCGMAGLWLAFNILVNVGVVLTYPILISIGTVLSVPGNAAVDLLKQEVIFNVVRLAATIIICIGFLLMLLPEEWDEITLRFINSLKEKKSEEHVDDVTDPSIHLRGRGRANGTVSIPLA
# B4: SLC35F5 (Homo sapiens) (protein)
# chain: MVPPRRHRGAGRPGVLSSSPPFRLRSAKFSGIALEDLRRALKTRLQMVCVFVMNRMNSQNSGFTQRRRMALGIVILLLVDVIWVASSELTSYVFTQYNKPFFSTFAKTSMFVLYLLGFIIWKPWRQQCTRGLRGKHAAFFADAEGYFAACTTDTTMNSSLSEPLYVPVKFHDLPSEKPESTNIDTEKTPKKSRVRFSNIMEIRQLPSSHALEAKLSRMSYPVKEQESILKTVGKLTATQVAKISFFFCFVWFLANLSYQEALSDTQVAIVNILSSTSGLFTLILAAVFPSNSGDRFTLSKLLAVILSIGGVVLVNLAGSEKPAGRDTVGSIWSLAGAMLYAVYIVMIKRKVDREDKLDIPMFFGFVGLFNLLLLWPGFFLLHYTGFEDFEFPNKVVLMCIIINGLIGTVLSEFLWLWGCFLTSSLIGTLALSLTIPLSIIADMCMQKVQFSWLFFAGAIPVFFSFFIVTLLCHYNNWDPVMVGIRRIFAFICRKHRIQRVPEDSEQCESLISMHSVSQEDGAS
# B5: SLC35G3 (Homo sapiens) (protein)
# chain: MAGSHPYFNQPDSTHPSPPSAPPSLRWYQRCQPSDATSGLLVALLGGGLPAGFVGPLSRMAYQASNLPSLELLIWRCLFHLPIALLLKLRGDPLLGTPDIRSRAFFCALLNILSIGCAYSAVQVVPAGNAATVRKGSSTVCSAVLTLCLESQGLSGYDWCGLLGCILGLIIIVGPGLWTLQEGTTGVYTALGYVEAFLGGLALSLRLLVYRSLHFPPCLPTVAFLSGLVGLLGSVPGLFVLQAPVLPSDLLSWSCVGAVGILALVSFTCVGYAVTKAHPALVCAVLHSEVVVALILQYYMLHETVAPSDIVAAGVVLGSIAIITAQNLSCERTGRVEE
# B6: SLC35G4 (Homo sapiens) (protein)
# chain: MAGSHPYFNLPDSTHPSPPSTPPSLHWHQRCQPSDATNGLLVALLGGGLPAGFVGPLSRMAYQASNLPSLELVICRCLFHLPIALLLKLRGDPLLGPPDIRGRTCFCALLNVLNIGCAYSAVQVVPTGNAATVRKHSSTVCSAILTLCLESQVLSGYDWCGLLGSILGLIIIVGPGLWTLQEGTTGVYTGLGYVQAFLGGLALSLGLLVYRSLHFPSCLPTVAFLSGLVGLLGSVPGLFVLQSPVLPSDLLSWSCVGAVGILTLVSFTCVGYAVTKAHPALVCAVLHSEVVMALILQYFMLHETVAPSDIMGAGVVLGSIAIITARNLICERTGKVEE
# B7: SLC44A1 (Homo sapiens) (protein)
# chain: MGCCSSASSAAQSSKREWKPLEDRSCTDIPWLLLFILFCIGMGFICGFSIATGAAARLVSGYDSYGNICGQKNTKLEAIPNSGMDHTQRKYVFFLDPCNLDLINRKIKSVALCVAACPRQELKTLSDVQKFAEINGSALCSYNLKPSEYTTSPKSSVLCPKLPVPASAPIPFFHRCAPVNISCYAKFAEALITFVSDNSVLHRLISGVMTSKEIILGLCLLSLVLSMILMVIIRYISRVLVWILTILVILGSLGGTGVLWWLYAKQRRSPKETVTPEQLQIAEDNLRALLIYAISATVFTVILFLIMLVMRKRVALTIALFHVAGKVFIHLPLLVFQPFWTFFALVLFWVYWIMTLLFLGTTGSPVQNEQGFVEFKISGPLQYMWWYHVVGLIWISEFILACQQMTVAGAVVTYYFTRDKRNLPFTPILASVNRLIRYHLGTVAKGSFIITLVKIPRMILMYIHSQLKGKENACARCVLKSCICCLWCLEKCLNYLNQNAYTATAINSTNFCTSAKDAFVILVENALRVATINTVGDFMLFLGKVLIVCSTGLAGIMLLNYQQDYTVWVLPLIIVCLFAFLVAHCFLSIYEMVVDVLFLCFAIDTKYNDGSPGREFYMDKVLMEFVENSRKAMKEAGKGGVADSRELKPMASGASSA
# B8: SLC35E2A (Homo sapiens) (protein)
# chain: MSSSVKTPALEELVPGSEEKPKGRSPLSWGSLFGHRSEKIVFAKSDGGTDENVLTVTITETTVIESDLGVWSSRALLYLTLWFFFSFCTLFLNKYILSLLGGEPSMLGAVQMLSTTVIGCVKTLVPCCLYQHKARLSYPPNFLMTMLFVGLMRFATVVLGLVSLKNVAVSFAETVKSSAPIFTVIMSRMILGEYTGRPSDREEREELQLQPGRGAAASDRRSPVPPSERHGVRPHGENLPGDFQVPQALHRVALSMALPCPMLPAS
# B9: SLC35E4 (Homo sapiens) (protein)
# chain: MCRCPPEHHDGRMTSAEVGAAAGGAQAAGPPEWPPGSPQALRQPGRARVAMAALVWLLAGASMSSLNKWIFTVHGFGRPLLLSALHMLVAALACHRGARRPMPGGTRCRVLLLSLTFGTSMACGNVGLRAVPLDLAQLVTTTTPLFTLALSALLLGRRHHPLQLAAMGPLCLGAACSLAGEFRTPPTGCGFLLAATCLRGLKSVQQSALLQEERLDAVTLLYATSLPSFCLLAGAALVLEAGVAPPPTAGDSRLWACILLSCLLSVLYNLASFSLLALTSALTVHVLGNLTVVGNLILSRLLFGSRLSALSYVGIALTLSGMFLYHNCEFVASWAARRGLWRRDQPSKGL
# Key:
# Assay in all cases: cells, lysate or membranes
# [1] = substrate: C[N+](C)(C)CCO; conditions: pH 7.4
# [2] = substrate: COC(=O)[C@H]1[C@@H](OC(=O)c2ccccc2)C[C@@H]2CC[C@H]1N2C; conditions: pH 7.4
# [3] = substrate: Clc1cccc(Cl)c1N=C1NCCN1; conditions: other: SLC35G3, HEK293, net uptake over empty vector cells; pH 7.4
# [4] = substrate: CCCNC(C)C(=O)Nc1c(C)csc1C(=O)OC; conditions: other: SLC35G3, HEK293, net uptake over empty vector cells; pH 7.4
# [5] = substrate: CNC(C)Cc1ccc2c(c1)OCO2; conditions: other: SLC35G3, HEK293, net uptake over empty vector cells; pH 7.4
# [6] = substrate: CCCN1CCCC[C@H]1C(=O)Nc1c(C)cccc1C; conditions: other: SLC35G3, HEK293, net uptake over empty vector cells; pH 7.4
# [7] = substrate: CCOC(=O)C1(c2ccccc2)CCN(C)CC1; conditions: other: SLC35G3, HEK293, net uptake over empty vector cells; pH 7.4
# [8] = substrate: COc1ccc2c3c1O[C@H]1C(=O)CC[C@@]4(O)[C@@H](C2)N(C)CC[C@]314; conditions: pH 7.4
# [9] = substrate: c1cnc2cc3c(cc2n1)[C@@H]1CNC[C@H]3C1; conditions: other: SLC35E2A, HEK293, net uptake over empty vector cells; pH 7.4
# [10] = other: SLC35F2, HEK293, net uptake over empty vector cells
# [11] = other: SLC35F3, HEK293, net uptake over empty vector cells
# [12] = other: SLC35F4, HEK293, net uptake over empty vector cells
# [13] = other: SLC35F5, HEK293, net uptake over empty vector cells
# [14] = other: SLC35G4, HEK293, net uptake over empty vector cells
# [15] = other: SLC44A1, HEK293, net uptake over empty vector cells
# [16] = other: SLC35E4, HEK293, net uptake over empty vector cells
protein,measurement,setting,value
B1,Km,[1]; [10],32.6 (±14.9) μM
same,Vmax,[1]; [10],8.1e-05 µmol/min/mg
same,Vmax/Km,[1]; [10],2.48 µL/min/mg
same,Km,[2],161 (±99.5) μM
same,Vmax,[2],0.000415 µmol/min/mg
same,Vmax/Km,[2],2.58 µL/min/mg
B2,Km,[1]; [11],112 (±96.4) μM
same,Vmax,[1]; [11],0.000135 µmol/min/mg
same,Vmax/Km,[1]; [11],1.21 µL/min/mg
B3,Km,[1]; [12],47.4 (±48.1) μM
same,Vmax,[1]; [12],6.28e-05 µmol/min/mg
same,Vmax/Km,[1]; [12],1.32 µL/min/mg
B4,Km,[1]; [13],5.83 (±3.23) μM
same,Vmax,[1]; [13],3.48e-05 µmol/min/mg
same,Vmax/Km,[1]; [13],5.97 µL/min/mg
B5,Km,[3],48.2 (±23.9) μM
same,Vmax,[3],0.000234 µmol/min/mg
same,Vmax/Km,[3],4.85 µL/min/mg
same,Km,[4],143 (±119) μM
same,Vmax,[4],0.000291 µmol/min/mg
same,Vmax/Km,[4],2.04 µL/min/mg
same,Km,[5],141 (±50.4) μM
same,Vmax,[5],0.000606 µmol/min/mg
same,Vmax/Km,[5],4.31 µL/min/mg
same,Km,[2],466 (±117) μM
same,Vmax,[2],0.000739 µmol/min/mg
same,Vmax/Km,[2],1.59 µL/min/mg
same,Km,[6],151 (±60.7) μM
same,Vmax,[6],0.000551 µmol/min/mg
same,Vmax/Km,[6],3.64 µL/min/mg
same,Km,[7],57.7 (±44.9) μM
same,Vmax,[7],0.000265 µmol/min/mg
same,Vmax/Km,[7],4.6 µL/min/mg
B6,Km,[1]; [14],13.2 (±7.02) μM
same,Vmax,[1]; [14],0.000108 µmol/min/mg
same,Vmax/Km,[1]; [14],8.15 µL/min/mg
B7,Km,[1]; [15],28.9 (±18.5) μM
same,Vmax,[1]; [15],6.01e-05 µmol/min/mg
same,Vmax/Km,[1]; [15],2.08 µL/min/mg
B8,Km,[8],92.0 (±31.0) μM
same,Vmax,[8],0.000317 µmol/min/mg
same,Vmax/Km,[8],3.44 µL/min/mg
same,Km,[9],474 (±190) μM
same,Vmax,[9],0.000847 µmol/min/mg
same,Vmax/Km,[9],1.79 µL/min/mg
same,Km,[2],165 (±47.7) μM
same,Vmax,[2],0.000683 µmol/min/mg
same,Vmax/Km,[2],4.14 µL/min/mg
B9,Km,[1]; [16],245 (±331) μM
same,Vmax,[1]; [16],4.19e-05 µmol/min/mg
same,Vmax/Km,[1]; [16],0.17 µL/min/mg
